Test results: patent publication US20210145828A1 (RUTGERS THE STATE UNIVERSITY OF NEW JERSEY, published 2021)

Biological target: T1, Gα12 (human, UniProt Q03113 1-381)
T1 sequence: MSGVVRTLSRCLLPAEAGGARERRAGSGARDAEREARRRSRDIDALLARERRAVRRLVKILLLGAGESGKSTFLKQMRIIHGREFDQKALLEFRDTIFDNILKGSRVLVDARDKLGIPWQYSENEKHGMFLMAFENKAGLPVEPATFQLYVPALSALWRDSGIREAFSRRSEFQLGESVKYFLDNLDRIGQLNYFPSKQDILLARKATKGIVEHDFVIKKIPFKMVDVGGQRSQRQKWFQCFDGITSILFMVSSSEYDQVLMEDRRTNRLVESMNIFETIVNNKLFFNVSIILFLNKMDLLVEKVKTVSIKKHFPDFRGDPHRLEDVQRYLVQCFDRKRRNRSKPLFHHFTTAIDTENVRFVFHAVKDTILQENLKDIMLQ
Test: cell-based or functional assay

B1: M3-muscarinic acetylcholine receptor (M3R) (receptor)
chain: not shown
- SRE-luciferase reporter activity after carbachol stimulation (10 µM, 6 hours): 76
